For three molecules, Binding Percentage, A-counts and A-counts (NRF2 plus KEAP1) results are on record in patent US20250352667A1.

Experiment [1] has as its target KEAP1 (wild-type full-length), His-tagged (human) (UniProt Q14145). The experiment is described as follows: AlphaScreen; NRF2 wt isoform 1 38.4 nM, KEAP1 150 nM; set as the 100 % reference for I86V.
Experiment [2] shares this target. Description: AlphaScreen; 19.2 nM FLAG-NRF2, 150 nM His-KEAP1; Rep 1; control for I86V. For orientation: Alpha assays give light when donor and acceptor beads are brought close together.
Experiment [3] has the same target. Description: AlphaScreen; 38.4 nM FLAG-NRF2, 150 nM His-KEAP1; Rep 1; control for I86V.
Experiment [4] has the same target. The experiment is described as follows: AlphaScreen; 4.8 nM FLAG-NRF2, 150 nM His-KEAP1; Rep 2; control for I86V.
For experiment [5] the target is unchanged. The experiment is described as follows: AlphaScreen; 38.4 nM FLAG-NRF2, 150 nM His-KEAP1; Rep 2.
Experiment [6] has the same target. The experiment is described as follows: AlphaScreen; FLAG-NRF2 I86V 614.4 nM, His-KEAP1 150 nM; Rep 1.
The target is the same in experiment [7]. Description: AlphaScreen; FLAG-NRF2 I86V 1228.8 nM, His-KEAP1 150 nM; Rep 3.
For experiment [8] the target is unchanged. Description: AlphaScreen; FLAG-NRF2 I86V 76.8 nM, His-KEAP1 150 nM; Rep 1.
The target is the same in experiment [9]. Description: AlphaScreen; FLAG-NRF2 I86V 153.6 nM, His-KEAP1 150 nM; Rep 1.

Changes are numbered by the printed parent chain. Numbers in names are those of the source.

Chain of KEAP1 (wild-type full-length), His-tagged (human) (Q14145 2-624 limits assumed): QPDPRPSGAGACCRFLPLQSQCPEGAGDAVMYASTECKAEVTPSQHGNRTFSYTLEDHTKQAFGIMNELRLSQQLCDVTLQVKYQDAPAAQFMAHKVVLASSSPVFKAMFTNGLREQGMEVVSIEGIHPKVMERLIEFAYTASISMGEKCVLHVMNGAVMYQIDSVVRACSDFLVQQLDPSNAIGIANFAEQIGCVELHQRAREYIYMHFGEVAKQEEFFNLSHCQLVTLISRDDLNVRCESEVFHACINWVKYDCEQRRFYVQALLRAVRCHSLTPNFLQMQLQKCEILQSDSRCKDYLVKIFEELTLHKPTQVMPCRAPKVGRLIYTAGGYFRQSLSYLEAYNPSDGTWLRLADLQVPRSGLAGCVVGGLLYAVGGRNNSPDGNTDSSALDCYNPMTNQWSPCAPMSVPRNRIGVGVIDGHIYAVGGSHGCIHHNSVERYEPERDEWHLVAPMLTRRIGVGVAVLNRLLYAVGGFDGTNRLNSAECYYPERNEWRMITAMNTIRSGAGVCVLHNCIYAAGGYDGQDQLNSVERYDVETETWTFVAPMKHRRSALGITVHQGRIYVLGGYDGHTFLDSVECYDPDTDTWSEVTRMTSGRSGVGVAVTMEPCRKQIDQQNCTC

B1: NRF2 isoform 1 (wild-type full-length), FLAG-tagged (protein)
chain: MMDLELPPPGLPSQQDMDLIDILWRQDIDLGVSREVFDFSQRRKEYELEKQKKLEKERQEQLQKEQEKAFFAQLQLDEETGEFLPIQPAQHIQSETSGSANYSQVAHIPKSDALYFDDCMQLLAQTFPFVDDNEVSSATFQSLVPDIPGHIESPVFIATNQAQSPETSVAQVAPVDLDGMQQDIEQVWEELLSIPELQCLNIENDKLVETTMVPSPEAKLTEVDNYHFYSSIPSMEKEVGNCSPHFLNAFEDSFSSILSTEDPNQLTVNSLNSDATVNTDFGDEFYSAFIAEPSISNSMPSPATLSHSLSELLNGPIDVSDLSLCKAFNQNHPESTAEFNDSDSGISLNTSPSVASPEHSVESSSYGDTLLGLSDSEVEELDSAPGSVKQNGPKTPVHSSGDMVQPLSPSQGQSTHVHDAQCENTPEKELPVSPGHRKTPFTKDKHSSRLEAHLTRDELRAKALHIPFPVEKIINLPVVDFNEMMSKEQFNEAQLALIRDIRRRGKNKVAAQNCRKRKLENIVELEQDLDHLKDEKEKLLKEKGENDKSLHLLKKQLSTLYLEVFSMLRDEDGKPYSPSEYSLQQTRDGNVFLVPKSKKPDVKKN
Take B1: the Binding Percentage in experiment [1] came out at 100%. The A-counts came to 3300 A-counts in experiment [2], 3100 A-counts in experiment [3] and 1620 A-counts in [4].

B2: NRF2 isoform 1 (I28V full-length), FLAG-tagged (protein)
chain: B1 chain with I28V
For the molecule B2, the A-counts in experiment [5] was determined as 1680 A-counts.

B3: NRF2 isoform 1 (I86V full-length), FLAG-tagged (protein)
chain: B1 chain with I86V
Consider B3, for which the A-counts (NRF2 plus KEAP1) in [6] stood at 2000 A-counts; in [7] it was 1620 A-counts; in experiment [8], 2810 A-counts; in experiment [9] it was 2380 A-counts.
